Experiment [1] deals with T1, native EED in MLL-AF9 leukemia cells (UniProt Q921E6 2-441, limits assumed).
T1 construct: Endogenous intracellular protein
The experiment in a line: anti-FITC immunoprecipitation from peptide-treated MLL-AF9 cells, EED western. The method, then: To assess the interaction between SAH-EZH2 peptides and native EED, MLL-AF9 leukemia cells (2×10⁷) were cultured in 10 ml AF9 media using 10 cm dishes (BD Biosciences) and FITC-SAH-EZH2 peptides added to final concentration of 20 μM, followed by 8-12 h incubation. Treated cells were washed and trypsinized as above, lysed and then incubated with 50 μl of FITC-antibody (1 mg/ml) and 100 μl of protein G agarose (Roche) for 3 h. The amount of EED bound to FITC-SAH-EZH2 peptides was assessed by anti-EED western analysis (Millipore). To monitor for dissociation of native EED-EZH1/EZH2 complexes by SAH-EZH2, Sf21 cells were co-transfected with HA-EED and FLAG-EZH1 or FLAG-EZH2 baculovirus. EED-EZH1 and EED-EZH2 complexes were purified by anti-FLAG agarose (Sigma). EED-EZH1 and EED-EZH2 complexes (40 nM final concentration) were incubated with FITC-SAH-EZH2 peptides (final concentrations, 10, 3 and 1 μM) in 200 μl binding buffer for 2 h. After successive washes, the mixtures were incubated with anti-HA agarose (Sigma) and the level of HA-EED-bound EZH1 and EZH2 assessed by anti-HA western analysis.

Another experiment concerns the target purified EED (Example 6) (UniProt O75530 1-441, limits assumed). Briefly: competitive fluorescence polarization: EED 200 nM, FITC-EZH2(42-68) 20 nM as competitor, 30 min. The method, then: The EED binding affinities of SAH-EZH2 and SAH-EZH2(42-68)AC were assessed by their capacities to displace FITC-labeled EZH2(42-68) peptide from EED. Serially diluted acetyl-SAH-EZH2 and the doubly stapled acetyl-SAH-EZH2(42-68)AC (dose range from 2.5 nM to 10 μIM) were incubated with purified EED (200 nM) and FITC-labeled EZH2(42-68) peptide (20 nM) for 30 min, followed by measurement of fluorescence polarization. N-terminal acetylated SAH-EZH2(42-68)AC displaced FITC-labeled EZH2(42-68) peptide from EED two times more efficiently than SAH-EZH2. The non-binding EZH2(47-64) construct was used as a negative control.
In general terms: Polarisation of emitted light reports the rotation of a fluorescent probe.

Bridges are numbered along the chain shown (N, C = ends). Where no end group is shown, it is not given here. [ ]: non-standard residue; d: D form. The star is where a group is joined. FITC = O=C1OC2(c3ccc(O)cc3Oc3cc(O)ccc32)c2ccc(NC(=S)*)cc21; S5 = C=CCCC[C@](C)(N)C(=O)O

purified EED (Example 6), sequence (O75530 whole entry): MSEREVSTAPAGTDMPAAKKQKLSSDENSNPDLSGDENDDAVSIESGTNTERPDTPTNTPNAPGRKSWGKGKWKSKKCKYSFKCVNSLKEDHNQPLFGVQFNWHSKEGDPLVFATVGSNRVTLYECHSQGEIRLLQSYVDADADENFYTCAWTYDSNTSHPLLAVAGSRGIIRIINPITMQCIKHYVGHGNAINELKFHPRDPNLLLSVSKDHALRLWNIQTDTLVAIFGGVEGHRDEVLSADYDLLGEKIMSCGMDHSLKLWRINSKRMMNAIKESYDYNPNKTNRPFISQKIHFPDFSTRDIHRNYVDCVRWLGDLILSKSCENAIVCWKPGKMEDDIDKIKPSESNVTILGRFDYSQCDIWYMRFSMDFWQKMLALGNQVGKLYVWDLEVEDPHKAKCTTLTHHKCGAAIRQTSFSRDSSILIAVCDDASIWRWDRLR
T1 sequence (Q921E6 2-441 limits assumed): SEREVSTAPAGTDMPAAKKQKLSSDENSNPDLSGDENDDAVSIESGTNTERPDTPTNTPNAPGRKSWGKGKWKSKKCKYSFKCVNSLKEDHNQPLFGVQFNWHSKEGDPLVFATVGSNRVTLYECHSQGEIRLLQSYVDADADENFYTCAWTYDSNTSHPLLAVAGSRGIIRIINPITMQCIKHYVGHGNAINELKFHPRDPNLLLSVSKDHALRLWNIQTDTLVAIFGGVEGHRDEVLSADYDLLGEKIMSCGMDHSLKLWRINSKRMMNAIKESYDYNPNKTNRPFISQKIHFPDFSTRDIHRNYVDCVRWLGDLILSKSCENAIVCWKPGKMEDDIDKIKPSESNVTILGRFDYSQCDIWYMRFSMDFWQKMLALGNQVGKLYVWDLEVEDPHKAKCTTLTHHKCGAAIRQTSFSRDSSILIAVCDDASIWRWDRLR

B1: FITC-SAH-EZH2A(42-68)E54Q/E59Q (peptide)
peptide: {FITC}-FSSNR[S5]KIL[S5]RTQILNQQWKQRRIQPV
modifications: staple 6-10
notes: Negative control peptide; also called SAH-EZH2MUT; SAH-EZH2(42-68)A-E54,59Q
As for B1, in experiment [1], the binding result is reported as “no binding (tested: 20 µM peptide on cells)”.

B2: acetyl-SAH-EZH2(42-68)AC (peptide)
peptide: Ac-FSSNR[S5]KIL[S5]RT[S5]ILN[S5]EWKQRRIQPV
modifications: staple 6-10, 13-17
notes: Doubly stapled peptide; also called doubly stapled SAH-EZH2 peptide
For the molecule B2, the “fold displacement efficiency against SAH-EZH2” value in the experiment with purified EED (Example 6) is 2 fold.

The record behind these values is US20160068834A1 (Dana-Farber, published 2016).
